# In patent publication US9872831B2 (ALFASIGMA S.P.A., priority 2011, dated 2018):
# Columns and labels:
# [1] = Uptake of i.v. 111In-ST2210 in lung and non target organs 24 h after inhalation exposure
# Experimental: Twenty Sprague Dawley rats were divided in three different groups.
# All rats were sacrificed 2 hours after the i.v. administration of ^111In-ST2210, and samples of blood, spleen, kidney, liver, stomach, brain, trachea, and tissue samples of different portions of lung were collected, weighed and analyzed with the use of a gamma-counter (Perkin Elmer). Data were expressed as the % of injected dose/gram of tissue (% ID/g).
# A431 cells = assay: Inhibition of proliferation, Cell Titer Glow assay; assay type: cell-based, Human; details: oxidized avidin alone compared with medium only (data not shown)
# Experimental: Proliferation inhibition was measured by Cell Titer Glow assay, Promega.
# [2] = Immunohistochemistry of lung sections with anti-avidin antibody after aerosol exposure; assay type: in vivo, Balb/c mice; details: 24 hours after aerosol exposure
# Experimental: The lungs were removed and fixed in formalin and paraffin embedded. Serial sections obtained by means of a microtome were processed and incubated with a HRP-conjugated rabbit anti-avidin antibody (GeneTex, USA) and then with DAB substrate.
# [3] = PET imaging of i.v. 64Cu-ST2210 after nebulised oxidized avidin; assay type: in vivo, Balb/c mice; details: 64Cu-ST2210 1 μg i.v. 24 h after aerosol; PET 4 hours after
# Experimental: After 24 hours, they received an intravenous 1 μg dose of ^64Cu-ST2210. ^64Cu-ST2210 distribution was examined by PET imaging 4 hours after. […] Kidneys, bladder are visible in both groups of mice. This observation is consistent with the physiological elimination of ST2210 at that time point.
# [4] = Linkage of instilled oxidized avidin to surgically lesioned bladder, PET with i.v. 68-Ga-ST2210; assay type: in vivo, pig; details: 1 h instillation, PET 4 h after 68-Ga-ST2210 i.v.
# Experimental: Anesthetised female pig of about 40 kg was subjected to surgery to generate two 2 cm superficial lesions on the bladder wall. […] Bladder was then washed with saline and 0.5 μg 68-Ga-ST2210 was i.v. administered. After 4 hours the pig was subjected to PET.
# [5] = Biodistribution of i.v. 111In-ST2210 after nebulised oxidized avidin; assay type: in vivo, Balb/c mice; details: nebulised 1 hour (about 90 mg/kg); 111In-ST2210 i.v. 24 h later; sacrifice after 2 or 24 hours
# Experimental: A biodistribution experiment aimed at determining the lung uptake selectivity and stability of ^111In-ST2210 was conducted. […] Twenty four hours after, all mice received ^111In-ST2210 intravenously (i.e., 1 μg in 0.2 ml of saline), and after further 2 or 24 hours, the animals were sacrificed by CO2 asphyxia. The lung and non target organs were collected weighed and counted in a gamma counter.
# [6] = Chemical integrity of oxidized avidin after nebulisation (HPLC); assay type: physicochemical; details: 3.0 mg/ml in 100 mM sodium acetate pH 5.5, nebulised 1 hour at room temperature
# From the text: The particle size of the protein solution midst was 5 μm. The nebulised solution was recovered in a falcon tube and analyzed by HPLC.
substance,measurement,setting,value
"Oxidized avidin: chemically oxidized avidin according to example 1 of WO2009016031, about 8 to 15 aldehyde moieties",111In-ST2210 % ID/g Blood,"[1]; Blood, 2 h after i.v. 111In-ST2210, 24 h after inhalation (about 10 mg/kg)",0.012 ± 0.004 % ID/g
same,111In-ST2210 % ID/g Kidney,"[1]; Kidney, 2 h after i.v. 111In-ST2210, 24 h after inhalation",0.414 ± 0.033 % ID/g
same,111In-ST2210 % ID/g Liver,"[1]; Liver, 2 h after i.v. 111In-ST2210, 24 h after inhalation",0.051 ± 0.005 % ID/g
same,111In-ST2210 % ID/g Lung dx (caudal lobe),"[1]; Lung dx (caudal lobe), 2 h after i.v. 111In-ST2210, 24 h after inhalation",0.055 ± 0.009 % ID/g
same,"111In-ST2210 % ID/g Lung dx (cranial, middle and accessory lobe)","[1]; Lung dx (cranial, middle and accessory lobe), 2 h after i.v. 111In-ST2210, 24 h after inhalation",0.055 ± 0.011 % ID/g
same,111In-ST2210 % ID/g Lung sn,"[1]; Lung sn, 2 h after i.v. 111In-ST2210, 24 h after inhalation",0.053 ± 0.008 % ID/g
same,111In-ST2210 % ID/g Lung,"[1]; Lung, 2 h after i.v. 111In-ST2210, 24 h after inhalation",0.054 ± 0.009 % ID/g
same,111In-ST2210 % ID/g Spleen,"[1]; Spleen, 2 h after i.v. 111In-ST2210, 24 h after inhalation",0.032 ± 0.002 % ID/g
same,111In-ST2210 % ID/g Stomach,"[1]; Stomach, 2 h after i.v. 111In-ST2210, 24 h after inhalation",0.276 ± 0.246 % ID/g
same,111In-ST2210 % ID/g Trachea,"[1]; Trachea, 2 h after i.v. 111In-ST2210, 24 h after inhalation",0.029 ± 0.007 % ID/g
same,organ linkage of nebulised oxidized avidin,[1]; lung versus trachea,bound to the lung but not to the trachea
same,effect on cell proliferation,A431 cells,did not affect cell proliferation
same,distribution of oxidized avidin in the lung,[2],homogenous in all lung compartments
same,localisation of oxidized avidin in lung sections,[2],presence of oxidized avidin at broncho/epithelial level down to terminal bronchioles
same,64Cu-ST2210 PET signal in the lungs,[3],presence of a radioactive signal in the lungs
same,binding to bladder tissue,[4]; intact bladder tissue,completely inert
same,binding to bladder tissue,[4]; region subjected to surgery,enabled the binding of oxidized avidin
same,uptake of 111In-ST2210 in the lung,[5],specific and significant uptake
same,HPLC elution profile pre and post nebulisation,[6],same elution profile
